Experimental findings from paper PMC5641094, “A peptide antagonist of Prep1-p160 interaction improves ceramide-induced insulin resistance in skeletal muscle cells” (Oncotarget, 2017) are described below.

Series [1] relates to L6 cells. The series can be described thus: Cell toxicity in L6 cells. In kind it is cell-based, rat. Particulars: 10μM peptide in the presence of liposomes, data not shown.
The test system of series [2] is L6 cells. The series can be described thus: FACS analysis of peptide uptake in L6 cells. In kind it is cell-based, rat. The conditions noted are these: FITC-conjugated peptide, increasing concentrations, in the presence of liposomes, harvested 48h later, FACS FL-1, four experiments. The procedure:
Figure 3 Design and in vitro effects of Prep1(54-72) peptide on Prep1/p160 association (A) Binding curves of Prep1(59-72) and Prep1(54-72) peptides to p160_20-160 by ELISA-like assays. Biotinylated peptides at several concentrations were added in triplicate to a 96-well plate coated with p160_20-160 (0.1μM). Experiments were performed at least twice and the average results fitted using GraphPad Prism. […] (B) Competition binding experiments. His6-tagged-p160_20-160 at 0.25μM was incubated with Prep1(59-72) and Prep1(54-72) at concentrations ranging between 0.001÷10μM and added to a 96-well plate coated with Prep1_45-155 (0.10μM). Results are the average of three independent experiments. (C) L6 cells were incubated with increasing concentrations of the fluorescein-conjugated peptide (FITC-Prep1(54-72)) and peptide uptake was detected by FACS analysis of fluorescein-labeled cells. […] Protein lysates were immunoprecipitated with Prep1 antibodies and analyzed by Western blot using antibodies for p160 or for Prep1. […] The blots were detected by ECL and autoradiography. […]
L6 cells were incubated with negative control (NC) and Prep1(54-72) peptides conjugated with fluorescein isothiocianate (FITC) at different concentrations and harvested 48h later. […] The samples were acquired by a BD LSRFortessa (BD Bioscience, San Jose, CA) and analyzed using BD FACS Diva Software.

In another series the target is T1, His6-tagged p160(20-160) (UniProt Q7TPV4 20-160).
T1 construct: also called His6-p160(20-160); p160(20-160) domain
T1 sequence (looked up): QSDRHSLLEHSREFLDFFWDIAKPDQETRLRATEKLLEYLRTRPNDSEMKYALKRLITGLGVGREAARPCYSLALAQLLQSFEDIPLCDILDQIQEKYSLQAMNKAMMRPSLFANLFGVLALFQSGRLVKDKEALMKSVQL
Description: ELISA; competition ELISA: plate coated with Prep1(45-155) (0.1 uM); His6-tagged p160(20-160) at 0.25 uM pre-incubated with peptides at 0.001-10 uM; detection with anti-His HRP-conjugated antibody. Particulars: both partners purified.

Series [3] concerns the target Prep1 (Pbx regulating protein 1), endogenous in L6 cells (rat (endogenous in L6)).

On to “FITC-Prep1(54-72): fluorescein-conjugated Prep1(54-72) peptide”, for which the cell toxicity entry in the series on L6 cells [1] is given as “without inducing any apparent cell toxicity”. For the same molecule, the “peptide uptake into cells” value with L6 cells [2] is “dose-dependent manner”.

B1: Prep1(54-72) peptide (peptide)
peptide: Ac-KQAIYRHPLFPLLALLFEK-NH2
notes: Prep1 (Pbx regulating protein 1), stretch of the HR1 domain, named residues 54-72; Brought into L6 cells in the presence of liposomes for the cell experiments; source: synthetic peptide (Fmoc solid phase, RP-HPLC purified)
For B1, the concentration for half-maximal inhibition (IC50) with His6-tagged p160(20-160) is 200 nM.

B2: p160 myb binding protein, endogenous in L6 cells (natural protein)
chain: MAEMKSPTKAEPASPAEAPQGDRRSLLEHSREFLDFFWDIAKPDQETRLRATEKLLEYLRTRPSDSEMKYALKRLITGLGVGREAARPCYSLALAQLLQSFEDIQLCDILGQIQEKYNLQAMNKAMMRPTLFANLFGVLALFQSGRLVKDKEALMKCVRLLKILSHHYNHLQGQPVKALVDILSEVPESMFQEILPKVLKGDMKVILSSPKYLELFLLARQRVPAELESLVGSVDLFSEDNIPSLVNILKVAANSVKKEQKLPDVALNLLRLALQENKFERFWKEVLEEGLLKKPSYTSSYMCFRLLGASLPLLSDEQLQLVMRGDLIRHFGEHMVVSKSQNPLRFIPEISAYVGTFLEGCQDDPKRQFTVMVAFTAITNQGLPVMPTFWRVTRFLNTEALQNYVTWLRDMFLQPDLDSLVDFSTANQKRVQVASLNVPERTVFRLRKWIIHRLVSLVDHLHLEKDEAVVEQIARFCLFHAFFKTKKATPQIPETKQHFSFPLEDGNRGVIVSAFFSLLQTLSVKFRQTPDLAENGKPWTYRLVQLADMLLKHNRNVANVTPLTAQQRQAWDQMMSTLKELEAQSSETRAIAFQHLLLLVGLHLFKSPAESCDVLGDIQTCIKKSMEQNLRRSRSRAKASQEPVWVEVMVEILLSLLAQPSNLMRQVVRSVFGHVCSHLTPRGLQLILAVLNPETNEDEEDNVVVTDTDEKQLKHGEDADSDSEDSKNSESDVDSEDGEESEEEDRDKDVDPGFRQQLMEVLQAGNALGGEEEEEEELGDEAMMALDQNLASLFAEQKMRIQARHEEKNKLQKEKQLRRDFQIRALDLIEVLVTKQPEHPLILELLEPLLNIIQRSMRSRGSTKQEQDLLHKTARIFMHHLCRARHYCHEVEPGAEALHAQVERLVQQAGNQADASVALYYFNASLYLLRVLKGNTTKRYQDGQKLEGADIKSEPKDSEVQTTSCLDLDFVTRVYSASLESLLTKRNSPLTIPMFLDLFSRYPVICKNLLPIVVQHVAGSSRPRHQAQACLLLQKALSARELRVCFEDPEWEQLISQVLGKTTQTLQTLGEAQSKGEHQRELSILELLNTVFRIVNHEKLSVDLTAFLGMLQGKQQKLQQNLQQGNHSSGSSRLYDLYWQAMNLLGVQRPKSEKKNVKDIPSDSQSPISTKRKKKGFLPETKKRKKLKSEGTTSEKKAASQQDAVTEGAMPAATGKDQPPSTGKKRRKRVKANTPSQVNGVTVAKSPAPNNPTLSPSTPPAKTPKVQKKKEKLSQVNGSTPVSPVEPESKKHQKALSTKEVKRRSSQSALPKKRARLSLVSRSPSLLQSGIRKRRVARRRVQTP
The molecule B2 registered a decrease in p160 protein level in C2cer-treated L6 cells incubated with Prep1(54-72), Western blot in series [3] of 25%.
